We go through two proteins from PMC9646744, “Structural dynamics of AAA + ATPase Drg1 and mechanism of benzo-diazaborine inhibition” (Nature Communications, 2022).

Series [1] deals with the molecule itself. Nature of the series: negative-staining electron microscopy; Drg1 hexamers assembled in vitro with ADP, AMPPNP, ADP/AMPPNP/benzo-diazaborine or ATP/benzo-diazaborine; 0.02 mg/mL, 2% uranyl acetate, carbon-coated copper grids.
Series [2] deals with the molecule itself. Briefly: cryo-EM structure; Drg1 E346Q/E617Q with ATP; GraFix (glycerol gradient with 0-0.05% glutaraldehyde); 50 mM HEPES-KOH pH 6.8, 150 mM KCl, 5 mM MgCl2, 1 mM DTT, 1 mM nucleotide; protomer with protomer in the hexamer.

As a reminder, the stoichiometry N is a count of units in the complex or per binding partner.

B1: Drg1 (wild type, S. cerevisiae) (enzyme, UniProt P32794 1-780, looked up)
chain: MAPKSSSSGSKKKSSASSNSADAKASKFKLPAEFITRPHPSKDHGKETCTAYIHPNVLSSLEINPGSFCTVGKIGENGILVIARAGDEEVHPVNVITLSTTIRSVGNLILGDRLELKKAQVQPPYATKVTVGSLQGYNILECMEEKVIQKLLDDSGVIMPGMIFQNLKTKAGDESIDVVITDASDDSLPDVSQLDLNMDDMYGGLDNLFYLSPPFIFRKGSTHITFSKETQANRKYNLPEPLSYAAVGGLDKEIESLKSAIEIPLHQPTLFSSFGVSPPRGILLHGPPGTGKTMLLRVVANTSNAHVLTINGPSIVSKYLGETEAALRDIFNEARKYQPSIIFIDEIDSIAPNRANDDSGEVESRVVATLLTLMDGMGAAGKVVVIAATNRPNSVDPALRRPGRFDQEVEIGIPDVDARFDILTKQFSRMSSDRHVLDSEAIKYIASKTHGYVGADLTALCRESVMKTIQRGLGTDANIDKFSLKVTLKDVESAMVDIRPSAMREIFLEMPKVYWSDIGGQEELKTKMKEMIQLPLEASETFARLGISAPKGVLLYGPPGCSKTLTAKALATESGINFLAVKGPEIFNKYVGESERAIREIFRKARSAAPSIIFFDEIDALSPDRDGSSTSAANHVLTSLLNEIDGVEELKGVVIVAATNRPDEIDAALLRPGRLDRHIYVGPPDVNARLEILKKCTKKFNTEESGVDLHELADRTEGYSGAEVVLLCQEAGLAAIMEDLDVAKVELRHFEKAFKGIARGITPEMLSYYEEFALRSGSSS
notes: Drg1, type II AAA+ ATPase encoded by AFG2, S. cerevisiae (genome of strain BY4741), full length; Hexamers assembled in vitro with ADP, AMPPNP, ADP/AMPPNP/benzo-diazaborine or ATP/benzo-diazaborine; stabilised by GraFix (glutaraldehyde) for cryo-EM; also called Drg1^WT; Drg1 hexamer; source: E. coli Transetta (DE3), purified (Ni-NTA, TEV cleavage, Mono Q, size-exclusion chromatography); not shown: …
Turning to B1, the “stoichiometry N” value in series [1] was found to be 6.

B2: Drg1 E346Q/E617Q double mutant (Walker B motifs of D1 and D2) (enzyme, S. cerevisiae, UniProt P32794 1-780, looked up)
chain: MAPKSSSSGSKKKSSASSNSADAKASKFKLPAEFITRPHPSKDHGKETCTAYIHPNVLSSLEINPGSFCTVGKIGENGILVIARAGDEEVHPVNVITLSTTIRSVGNLILGDRLELKKAQVQPPYATKVTVGSLQGYNILECMEEKVIQKLLDDSGVIMPGMIFQNLKTKAGDESIDVVITDASDDSLPDVSQLDLNMDDMYGGLDNLFYLSPPFIFRKGSTHITFSKETQANRKYNLPEPLSYAAVGGLDKEIESLKSAIEIPLHQPTLFSSFGVSPPRGILLHGPPGTGKTMLLRVVANTSNAHVLTINGPSIVSKYLGETEAALRDIFNEARKYQPSIIFIDQIDSIAPNRANDDSGEVESRVVATLLTLMDGMGAAGKVVVIAATNRPNSVDPALRRPGRFDQEVEIGIPDVDARFDILTKQFSRMSSDRHVLDSEAIKYIASKTHGYVGADLTALCRESVMKTIQRGLGTDANIDKFSLKVTLKDVESAMVDIRPSAMREIFLEMPKVYWSDIGGQEELKTKMKEMIQLPLEASETFARLGISAPKGVLLYGPPGCSKTLTAKALATESGINFLAVKGPEIFNKYVGESERAIREIFRKARSAAPSIIFFDQIDALSPDRDGSSTSAANHVLTSLLNEIDGVEELKGVVIVAATNRPDEIDAALLRPGRLDRHIYVGPPDVNARLEILKKCTKKFNTEESGVDLHELADRTEGYSGAEVVLLCQEAGLAAIMEDLDVAKVELRHFEKAFKGIARGITPEMLSYYEEFALRSGSSS
notes: Drg1, type II AAA+ ATPase encoded by AFG2, S. cerevisiae, full length, with the Walker B mutations E346Q and E617Q; Incubated with 5 mM ATP before size-exclusion chromatography; the atomic model covers residues 29 to 777; also called mutant Drg1; double mutant Drg1; source: E. coli Transetta (DE3), purified (Ni-NTA, TEV cleavage, Mono Q, size-exclusion chromatography); not shown: His6, …
Consider B2, for which, in series [2], the “stoichiometry N” value amounted to 6.
